6 compounds from paper PMC6161111, “Design, Synthesis, In Vitro, and Initial In Vivo Evaluation of Heterobivalent Peptidic Ligands Targeting Both NPY(Y1)- and GRP-Receptors—An Improvement for Breast Cancer Imaging?” (Pharmaceuticals, 2018) can be followed below.

Structures are written as SMILES. *1 amine or outer side, *2 acyl side, *3 side chain or, on linkers, in order; H or OH if unused. Where a SMILES comes first, the peptide text is derived from it. Bridges are numbered along the chain shown (N, C = ends). Roman numbers before positions name the chains, in order. [ ]: non-standard residue; d: D form. The star is where a group is joined. X1 = NC(=O)[C@H](CCCCNC(=O)CCC(C(=O)O)N1CCN(CC(=O)O)CCN(CC(=O)O)CC1)NC(=O)CCOCCOCCOCCOCCNC(=O)CN(CCCNC(=O)CCOCCOCCOCCOCCNC(=O)c1ccc(C=NOCC(=O)NCCOCCOCCOCCOCCC(=O)[*:2])cc1)CCCNC(=O)CCOCCOCCOCCOCCNC(=O)c1ccc(C=NOCC(=O)[*:1])cc1; DOTA = O=C(O)CN1CCN(CC(=O)O)CCN(CC(=O)*)CCN(CC(=O)O)CC1; Nle = CCCC[C@H](N)C(=O)O

As a reminder, the logD is the decadic logarithm of the distribution of all forms, ionised or not, between an organic phase and buffer at a given pH. High values mean higher lipophilicity, low ones lower lipophilicity.

Data set [1] in a line: Determination of radiotracer lipophilicity (logD, phosphate buffer/1-octanol). It counts as physicochemical. Conditions: phosphate buffer (0.05 M, pH 7.4) / 1-octanol, six independent experiments. As for the experimental part: Determination of radiotracer lipophilicity. The heterobivalent ligands (22–26) as well as the monomeric reference compounds (27 and 28) were radiolabeled with ^68Ga as described before and 2 µL of the product solution (~65 pmol of the respective radioligand) were added to a mixture of phosphate buffer (0.05 M, pH 7.4, 800 µL) and 1-octanol (800 µL) and incubated for 5 min at ambient temperature under vigorous shaking. Both phases were separated by centrifugation and 100 µL of each phase were measured for radioactivity in a gamma-counter. […] (cpm = counts per minute), cpmw = activity in the aqueous phase [cpm]. These experiments were performed six times independently.

Data set [2] concerns T-47D cells. Put plainly: In vitro cell uptake (internalization) study in T-47D cells. It counts as cell-based, human. Particulars: after 4 h, % of total added activity. As for the experimental part:
Cell culture. All cell lines were grown in suitable culture medium at 37 °C in a humidified CO2 (5%) atmosphere. The human breast cancer cell lines T-47D, MDA-MB-231 and MCF-7 were grown in Dulbecco’s Modified Eagle Medium (DMEM), supplemented with 10% (v/v) fetal calf serum (FCS) and 1% (v/v) L-Glutamine. For a high expression of the NPY(Y1) receptor on T-47D cells, the medium for this cell line was further supplemented with 0.15% (w/v) β-estradiol. The BT-474 and PC-3 cell lines were grown in RPMI-1640 medium, also supplemented with 10% (v/v) fetal calf serum (FCS) and 1% (v/v) L-Glutamine.
Internalization studies. Cells (T-47D, MDA-MB-231, MCF-7, BT-474 and PC-3, 1.5 × 10^6 cells per well) were seeded into 6-well plates and incubated overnight at 37 °C in a humidified CO2 (5%) atmosphere. The next day, the medium was removed and the cells were washed twice with the respective medium without supplements (ice-cold, 1 mL) and incubated with 3.7–4.0 kBq (0.37–4.0 pmol) of the respective ^68Ga-radiolabeled ligand [^68Ga]22−[^68Ga]26, [^68Ga]27 or [^68Ga]28 (in 1.5 mL medium, containing 0.5% (w/v) BSA) for defined time-points of 1, 2, 3 or 4 h at 37 °C in a humidified CO2 (5%) atmosphere. A 1000-fold excess of the respective peptide (3 or 4) was used for blocking to determine the non-specific cell uptake. At each time point, the medium was removed and the cells were washed twice with the respective medium without supplements (ice-cold, 1 mL). Cells were treated twice with 1 mL glycine buffer (ice-cold, 50 mM glycine, 100 mM NaCl, pH 2.8) for 5 min at room temperature, followed by 2 mL NaOH solution (1 M) for 10 min at 37 °C. The supernatants were collected and the radioactivity measured in a gamma counter. The internalized and surface bound activity was expressed as percentage of measured to total added activity. Each data point was generated thrice in triplicates.

The subject of data set [3] is T-47D tumor-bearing mice. Put plainly: Ex vivo biodistribution in T-47D tumor-bearing mice. Conditions: mouse, in vivo. As for the experimental part:
(§1) In vivo experiments. All animal experiments were performed in compliance with the German animal protection laws and protocols of the local committee (Regierungspräsidium Karlsruhe, approval number: 35-9185.81/G-206/15). 20, six week old female immunodeficient Fox Chase SCID (CB17/Icr-Prkdc^scid/IcrIcoCrl) mice with an average weight of 20 g were subcutaneously implanted with 17β-estradiol pellets (0.36 mg/60 days). 4 days later, the tumors were induced by subcutaneous inoculation of 5 × 10^6 T-47D cells into the left flank of the […]. After induction, the tumors were allowed to grow for 8–10 weeks and reached a diameter of about 0.5 cm. For imaging, the animals were anaesthetized with isoflurane and injected with 5.5–8.0 MBq of the respective radioligand ([^68Ga]24, [^68Ga]24a or [^68Ga]24b) into the lateral tail vein. Dynamic PET images were acquired over 90 min and CT images were obtained within further 30 min. After the end of the diagnostic scan, the animals were sacrificed, the organs were collected and measured in a gamma-counter.

Assay in data set [4]: as above
Conditions: female, Fox Chase SCID (CB17/Icr-Prkdc^scid/IcrIcoCrl), mouse, in vivo, iv, total radioactivity. The method, then:
as §1

Regarding `CCCC[C@H](NC(=O)[C@H](CCCNC(=N)N)NC(=O)[C@H](Cc1c[nH]c2ccccc12)NC(=O)[C@H](CCCCNC(=O)CON=Cc1ccc(C(=O)NCCCN(CCCNC(=O)c2ccc(C=NOCC(=O)NCCOCCOCCOCCOCCC(=O)N[C@@H](CCC(N)=O)C(=O)N[C@@H](Cc3c[nH]c4ccccc34)C(=O)N[C@@H](C)C(=O)N[C@H](C(=O)NCC(=O)N[C@@H](Cc3c[nH]cn3)C(=O)N[C@@H](CC(C)C)C(=O)N[C@@H](CCSC)C(N)=O)C(C)C)cc2)CC(=O)NCCOCCOCCOCCOCCC(=O)N[C@@H](CCCCNC(=O)CCC(C(=O)O)N2CCN(CC(=O)O)CCN(CC(=O)O)CC2)C(N)=O)cc1)NC(=O)[C@@H]1CCCN1C(=O)[C@H](CC(N)=O)NC(=O)[C@@H](N)[C@@H](C)CC)C(=O)N[C@@H](CCCNC(=N)N)C(=O)N[C@@H](Cc1ccc(O)cc1)C(N)=O` (stereo partly drawn) [[^68Ga]22, metal not drawn], in data set [1], the logD is -1.57 ± 0.111. The compound also came in with a specific cell uptake in data set [2] of 47.8 ± 6.5%.

`CCCC[C@H](NC(=O)[C@H](CCCNC(=N)N)NC(=O)[C@H](Cc1c[nH]c2ccccc12)NC(=O)[C@H](CCCCNC(=O)CON=Cc1ccc(C(=O)NCCOCCOCC(=O)NCCCN(CCCNC(=O)COCCOCCNC(=O)c2ccc(C=NOCC(=O)NCCOCCOCCOCCOCCC(=O)N[C@@H](CCC(N)=O)C(=O)N[C@@H](Cc3c[nH]c4ccccc34)C(=O)N[C@@H](C)C(=O)N[C@H](C(=O)NCC(=O)N[C@@H](Cc3c[nH]cn3)C(=O)N[C@@H](CC(C)C)C(=O)N[C@@H](CCSC)C(N)=O)C(C)C)cc2)CC(=O)NCCOCCOCCOCCOCCC(=O)N[C@@H](CCCCNC(=O)CCC(C(=O)O)N2CCN(CC(=O)O)CCN(CC(=O)O)CC2)C(N)=O)cc1)NC(=O)[C@@H]1CCCN1C(=O)[C@H](CC(N)=O)NC(=O)[C@@H](N)[C@@H](C)CC)C(=O)N[C@@H](CCCNC(=N)N)C(=O)N[C@@H](Cc1ccc(O)cc1)C(N)=O` (stereo partly drawn) [[^68Ga]23, metal not drawn] had a logD in data set [1] of -1.53 ± 0.109. Further, the specific cell uptake in data set [2] was found to be 45.8 ± 2.9%.

Take `CCCC[C@H](NC(=O)[C@H](CCCNC(=N)N)NC(=O)[C@H](Cc1c[nH]c2ccccc12)NC(=O)[C@H](CCCCNC(=O)CON=Cc1ccc(C(=O)NCCOCCOCCOCCOCCC(=O)NCCCN(CCCNC(=O)CCOCCOCCOCCOCCNC(=O)c2ccc(C=NOCC(=O)NCCOCCOCCOCCOCCC(=O)NCC(=O)N[C@@H](CC(C)C)C(=O)N[C@@H](Cc3c[nH]cn3)C(=O)N[C@H](C(=O)N[C@@H](CCSC)C(=O)N[C@@H](Cc3c[nH]c4ccccc34)C(=O)N[C@@H](CCC(N)=O)C(=O)N[C@@H](C)C(N)=O)C(C)C)cc2)CC(=O)NCCOCCOCCOCCOCCC(=O)N[C@@H](CCCCNC(=O)CCC(C(=O)O)N2CCN(CC(=O)O)CCN(CC(=O)O)CC2)C(N)=O)cc1)NC(=O)[C@@H]1CCCN1C(=O)[C@H](CC(N)=O)NC(=O)[C@@H](N)[C@@H](C)CC)C(=O)N[C@@H](CCCNC(=N)N)C(=O)N[C@@H](Cc1ccc(O)cc1)C(N)=O` (stereo partly drawn) [[^68Ga]24a, metal not drawn] (I: H-INPKWR[Nle]RY-NH2 / II: GLHVMWQA-NH2; linker I:4-II:N via X1): in data set [3], the adrenal glands uptake was found to be 0.74 ± 0.40 ID/g in %, the blood uptake worked out at 0.39 ± 0.37 ID/g in %, the bone uptake is listed as 0.13 ± 0.08 ID/g in % and the brain uptake was 0.03 ± 0.02 ID/g in %. In data set [3], this compound had a heart uptake of 0.18 ± 0.14 ID/g in %, a kidneys uptake of 29.72 ± 10.33 ID/g in %, a large intestines uptake of 0.24 ± 0.19 ID/g in % and a liver uptake of 5.54 ± 0.31 ID/g in %. Besides, in data set [3], the lung uptake stood at 0.28 ± 0.04 ID/g in %, the muscle uptake worked out at 0.26 ± 0.40 ID/g in %, the pancreas uptake came out at 0.15 ± 0.08 ID/g in % and the small intestines uptake was 0.43 ± 0.37 ID/g in %. In addition, in data set [3], the spleen uptake is 0.49 ± 0.14 ID/g in %, the stomach uptake amounted to 0.39 ± 0.41 ID/g in %, the tail uptake worked out at 0.46 ± 0.41 ID/g in % and the tumor uptake is 0.21 ± 0.15 ID/g in %. Further, in data set [4] (tumor-to-blood ratio (T / B)), the tissue to tissue ratio at 130 min amounted to 0.5 ± 0.47. The tissue to tissue ratio at 130 min in data set [4] (tumor-to-muscle ratio (T / M)) amounted to 1.07 ± 1.14.

As for `CCCC[C@H](NC(=O)[C@H](CCCCNC(=O)CON=Cc1ccc(C(=O)NCCOCCOCCOCCOCCC(=O)NCCCN(CCCNC(=O)CCOCCOCCOCCOCCNC(=O)c2ccc(C=NOCC(=O)NCCOCCOCCOCCOCCC(=O)N[C@@H](CCC(N)=O)C(=O)N[C@@H](Cc3c[nH]c4ccccc34)C(=O)N[C@@H](C)C(=O)N[C@H](C(=O)NCC(=O)N[C@@H](Cc3c[nH]cn3)C(=O)N[C@@H](CC(C)C)C(=O)N[C@@H](CCSC)C(N)=O)C(C)C)cc2)CC(=O)NCCOCCOCCOCCOCCC(=O)N[C@@H](CCCCNC(=O)CCC(C(=O)O)N2CCN(CC(=O)O)CCN(CC(=O)O)CC2)C(N)=O)cc1)NC(=O)[C@H](CC(N)=O)NC(=O)[C@H](Cc1ccc(O)cc1)NC(=O)[C@@H]1CCCN1)C(=O)N[C@@H](CCCNC(=N)N)C(=O)N[C@@H](CCCNC(=N)N)C(=O)N[C@@H](Cc1c[nH]c2ccccc12)C(=O)N[C@H](C(N)=O)[C@@H](C)CC` (stereo partly drawn) [[^68Ga]24b, metal not drawn], in data set [3], the adrenal glands uptake is given as 2.91 ± 1.13 ID/g in %, the blood uptake was determined as 2.02 ± 1.34 ID/g in %, the bone uptake came to 0.43 ± 0.23 ID/g in % and the brain uptake amounted to 0.07 ± 0.04 ID/g in %. In data set [3], this compound registered a heart uptake of 0.85 ± 0.52 ID/g in %, a kidneys uptake of 43.84 ± 25.05 ID/g in %, a large intestines uptake of 1.71 ± 0.69 ID/g in % and a liver uptake of 16.75 ± 0.85 ID/g in %. Besides, in data set [3], the lung uptake turned out to be 0.88 ± 0.07 ID/g in %, the muscle uptake worked out at 0.48 ± 0.40 ID/g in %, the pancreas uptake is 8.30 ± 5.33 ID/g in % and the small intestines uptake worked out at 1.53 ± 0.51 ID/g in %. In data set [3], this compound showed a spleen uptake of 2.12 ± 0.49 ID/g in %, a stomach uptake of 1.35 ± 0.43 ID/g in %, a tail uptake of 1.64 ± 0.94 ID/g in % and a tumor uptake of 1.84 ± 0.32 ID/g in %. Also, in data set [4] (tumor-to-blood ratio (T / B)), the tissue to tissue ratio at 130 min came out at 0.91 ± 0.24. Moreover, the tissue to tissue ratio at 130 min in data set [4] (tumor-to-muscle ratio (T / M)) amounted to 3.83 ± 0.8.

Regarding `CSCC[C@H](NC(=O)[C@H](CC(C)C)NC(=O)[C@H](Cc1c[nH]cn1)NC(=O)CNC(=O)[C@@H](NC(=O)[C@H](C)NC(=O)[C@H](Cc1c[nH]c2ccccc12)NC(=O)[C@H](CCC(N)=O)NC(=O)CCOCCOCCOCCOCCNC(=O)CN1CCN(CC(=O)O)CCN(CC(=O)O)CCN(CC(=O)O)CC1)C(C)C)C(N)=O` [[^68Ga]27, metal not drawn, reference compound], the log distribution coefficient (logD) in data set [1] is -1.86 ± 0.054.

On to `CCCC[C@H](NC(=O)[C@H](CCCNC(=N)N)NC(=O)[C@H](Cc1c[nH]c2ccccc12)NC(=O)[C@H](CCCCNC(=O)CN1CCN(CC(=O)O)CCN(CC(=O)O)CCN(CC(=O)O)CC1)NC(=O)[C@@H]1CCCN1C(=O)[C@H](CC(N)=O)NC(=O)[C@@H](N)[C@@H](C)CC)C(=O)N[C@@H](CCCNC(=N)N)C(=O)N[C@@H](Cc1ccc(O)cc1)C(N)=O` [[^68Ga]28, metal not drawn, reference compound] (H-INPK(DOTA)WR[Nle]RY-NH2), for which the logD in data set [1] is -1.98 ± 0.162.
